Measurements taken from the DeepSol protein solubility set.

assay: soluble on expression in E. coli; label from the status in PepcDB or PDB records

Row | Sequence | soluble on expression in E. coli
1 | SLRASDDKALQYAIAEITEIATGFGLDFYPMRYEICPAEIIYTFGAYGMPTRFSHWSFGKQFFRMKLQYDLGLSKIYELVINSDPCYAFLLDTNSLIQNKLIVAHVLAHCDFFKNNIRFSNTKRDMVESMSATAERVKAYEHKYGKEEVETFLDAVLAIQEHIDPSLMRPKLAWSIDDLEEEEVEKKKVSQYDDLWNLDNRNKKRERSNVRKKKKIPPQPEKDLLLFIEEYSRELEDWQRDILTMMREEMLYFWPQLETKIMNEGWASYY | soluble
2 | MSLSFPQLHTVTSYSLLSSTVRIRSYVKQAKALGYQTLAITDINVLHGAVEFYEACQEAGIQPIIGLRLEYTPAEKEGHSELLLFAKNLKGYQQLMQLSSSKMTTEGPFYLAEHQSLLSDLFAVTLSAKGEVAQTFFEDEQQAVHAFQQLASYFDPQSLFVEHSFSMNQQRNPALFSFYQREQLPGVALQEVRHLTREEGFAVTVLESIKENNQLNITSQTPEIEGLNYLREAETTMEQMLQEGHHHHHH | not soluble
3 | MKDNEQKAGSVADQKNKIRERYKGVSIDELDVIPALPQEDIFAVENEQRVAVYARVSTDDPRQTSSYELQKNHYHDVISKSPNWKLVQIYADEGISGTSLQHRDQFKLMIEDCKKGEIDLIVTKSVSRFARNVVDCIGYVRELLALPHPVGVFFETERLNTFDPKSEMVLSFMATLAQEESHTKSEIMNASIEMRFRRGIFLTPTLLGYDHDEDGNLVVNEGEAKIVRLIFMMYLNGCTCQEIADTMTELGCETKKGNTVWSPGSILQILQNERHCGDVLARKTYTPNYLNHKSKKNMQNRPQYRKRNHHEAIISRDDFIAVQRLISNAKYGNKGILPELKVISNGVLKGFVSINPRWAGFKENDYISASLSVYDQMEQLSPSASSVEVQSGDFDLRGYEIARSQFFDGTDRITVTFSLNDIKFSTAAVRKLNSTLVELLLHPNKHLFAVRTASQAHRNAMQWAKKRGELSVPRAVSGTAFMPTVYALLGWNTDCRYRITGIRRGNGNDAVLLFNLEETEIFIPSDVIDEQQTSDARTDVKPLEHHHHHH | soluble
4 | MGSDKIHHHHHHMRIQVASDLHHELAVSNSAMAARLEHADDAVDVLVLAGDIHNQTGAIDLYADYPVPVVYVCGNHEFYGTEMLQLLPELRRRAVGTSVKLLEKDELILNNVRFLGCTMWTDYHAFPLCLNTAMEYARNHMLDHQRIRESNNGRFEPEDAAEEQRAALEFLVRKIREPFPGKTVVITHHAPSARSIHQHEQNNPLVPAFASNLEFLASEADLWIHGHIHLSSDYRLGNCRVICNPRGYPGRRNRSNPALAYENAQFDARKVIDV | not soluble
5 | MMFLRQEDFATVVRSTPLVSLDFIVENSRGEFLLGKRTNRPAQGYWFVPGGRVQKDETLEAAFERLTMAELGLRLPITAGQFYGVWQHFYDDNFSGTDFTTHYVVLGFRFRVSEEELLLPDEQHDDYRWLTSDALLASDNVHANSRAYFLAEKRTGVPGL | soluble
6 | GPGSMTQPSAVVAIGGGLRLLAQPAPTPTADGSSQALTDVFLSEYCAPLQRSSHHLHTHVPRYTVPTPASRRYTPRAGDPVLAIIARKVSQHYYYCYIGGSALAYMDALAFDGATKVSRPRLVEGDVVYCYVKPREGSSYVDGVHRSVASEVFDTTGEVEVSCTAAEVGLPPKDWTSGEAVFGPLQGGRVLHLPLVYVRRLLTPMGSSPEKASAQQRKRDHTEGEGSDGDEVPASYLLQLLGRRVPFEVAVGLNGLVWVRGLSSEADATAAARRTVAVSSCISEAQYDVTRAEMEARVEVYFPS | not soluble
7 | MNTLLSLMNSIEQEARTIYDSYDAKKKALADKKEEELKQLFLEYEQETQLLLEAKREVFFEANRQEQKASKKRLATQQLALHAILEEHKLTVVRELVDKVVETYGH | not soluble
8 | MKPLLDVLMILDAIEKEGSFAAASAKLYKTPSALSYTVHKLESDLNIQLLDRSGHRAKFTRTGKMLLEKGREVLHTVRELEKQAIKLHEGWENELVIGVDDTFPFSLLAPLIEAFYQHHSVTRLKFINGVLGGSWDALTQGRADIIVGAMHEPPSSSEFGFSRLGDLEQVFAVAPHHPLAQEEEPLNRRIIKRYRAIVVGDTAQAGASTASQLLDEQEAITVFDFKTKLELQISGLGCGYLPRYLAQRFLDSGALIEKKVVAQTLFEPVWIGWNEQTAGLASGWWRDEILANSAIAGVYAKSDDGKSAIQRKIIMTSLSFSCHFPPI | not soluble
9 | MEDLRRYICDNTQKNIVMLVGRKVSDISKIARSYGNACMLRSFQGFRIVKSIYYYEDEVKISADGIVLCKDSLDELLRTVEQNNHVEIRNAVATFYDEMSSMGMNGESMNLNINYLLFQFIHLASEQDDNVNQQEILRLISESSFKTGIERGSRAHMTRFCCEYGDYLSQLRKNVSRGVIGMVEKEVRDNYATNITLKSLSEKYYVNSAYLGQLFRKKYGQSFKDYLNNYRMERAAELLLRTDKKIIQIAEEVGYHDMDYFVNRFIQVKGCTPARFRRQMQSGE | not soluble
10 | MSLKLFCFKAIIFPIVGGSFNNGTNVFQSTVIVISLDGFRADYLYRGFTPNLLSLAERNVHVPFLIPSFPSITFPNHYTIVTGLYPESHGIVSNNFFDPVTGKQFVNSMPECNKDPTWWDKGEPIWVNAERNNVRSAVHMWPGNEVENHGYRPTYSDGFNFDTTLREKKDRILEWLDLPDKDRPQLLLAYAPHVDMVGHAFGPDSPELNIIIQEVDIVIGELIEGLKKRNIDKHVNIIFLSDHGMAPTSDNRLIWLDNMFNLSAVAHRDAWPLGGFRGESDLDDEYIYESLVNYSRSSLPSAENWNVYSKKDIPSRWHYSNNERIAPVWMIPDVGWSLVSMLDHSPELEYEPLGVHGYDNLSPVMRALFIASGSSFKNFKGKKLAPFQNTEIYGILSHILDLPAQPNNGTYEGALPLRRNRNSTKEWLLKDIEQAYSKLIEGHHHHHH | not soluble
11 | MGSDKIHHHHHHMNVTDLPQACISLIENVPGIDFIDEDFAIFDNIDDIPSLDHPMRIDAVVFALCTKGFMRIRINMEEYVVGENHLVLSLPDQIIQHVERSEDVAGIFIVISKNFMEEIIPHIQNTLPAFFYIKEHPVTELNAEEIGCIKEYHSFLWKKVKAKRHPYRKEIAQSLLLAVFHEVYGMFKNHMPIEVKKSRQEELFAAFIQTLALHHKQERSVAFYAGKLCVTPKYLSLLVKNVSNRTAGEWIDNYVVLEAKALLSSSTLSIQEISDRLNFTNQSFFGKYFKQHVGISPTEYRKKW | not soluble
12 | MYQQSSFKENLIHWFDENQREMPWRQTTNPYYIWLSEVMLQQTQVKTVIDYYHRFVERFPTVEVLSQASEDEVLKYWEGLGYYSRARNFHTAIKEVHDKYEGLVPKDPDQFKALKGVGPYTQAAVMSIAYNVPLATVDGNVFRVWSRLNDDYRDIKLQSTRKSYEQELLPYVTTEAGTFNQAMMELGALICTPKNPLCLFCPVQENCEAFDKGTFEKLPVKSKNVSKKVIEQSVFLIRNNQGQYLLQKRSEKLLHGMWQFPMFESEHARRKMTEKIGHDIQPVETPIFELKHQFTHLTWKIKVYAVSGAINIETLPDDMIWFDLSDRDQYTFPVPMSKIYQFING | not soluble
13 | MGLLVNGIWQDQWYDTESTGGRFVRHDSQFRHWITPDGSPGPTGHGGFKAEAGRYHLYVSLACPWAHRTLIFRKLKGLEGMIDVSVVHWLMRENGWTFAPGPGVMPDPLFNAEYLYQIYTRADAQYSGRVTVPILWDKQKQTIVNNESSEIIRIFNSAFDGLGAKSGDYYPKALRTQIDALNDRIYHTINNGVYKCGFATTQTAYEEAIAPLFESLDWLEGILQGHQYLTGDEITEADWRLFTTLIRFDVVYVGHFKCNLRRIQDYPNLWRYLRDLYHQPGIAETVNFQHIKGHYYESHLNINPTGIVPMGPALDLSLALEHHHHHH | not soluble
14 | MSTYLIGDIHGCLDELLALLAQVNFDPQQDTLWLTGDLVARGPASLDVLRYVRSLGPAVRMVLGNHDLHLLAVYAGISRNKPKDRITPLLDAPDADELINWLRRQPVLQVDDQLKLIMAHAGITPQWDIETAKMCAREVEAVLSSDSYPLFLDAMYGDMPNNWSPELTGLARLRFSTNALTRMRFCFPNGQLDMICKDTPENAPAPLKPWFDLPRLVDPEYSIIFGHWASLEGKGVPEGIYGLDTGCCWGGDLTLLRWDDKRYFTQRAFKAEAEINNNNGFAAGEAVQH | not soluble
15 | SLAAGVLPQNEQPYSTLVNNSECVANMKGNLERPTPKYTKVGERLRHVIPGHMACSMACGGRACKYENPARWSEQEQAIKGVYSSWVTDNILAMARPSSELLEKYHIIDQFLSHGIKTIINLQRPGEHASCGNPLEQESGFTYLPEAFMEAGIYFYNFGWKDYGVASLTTILDMVKVMTFALQEGKVAIHCHAGLGRTGVLIACYLVFATRMTADQAIIFVRAKRPNSIQTRGQLLCVREFTQFLTPLRNIFSCCDPKAHAVTLPQYLIRQRHLLHGYEARLLKHVPKIIHLVCKLLLDLAE | soluble
16 | MSEKLQVVTLLGSLRKGSFNGMVARTLPKIAPASMEVNALPSIADIPLYDADVQQEEGFPATVEALAEQIRQADGVVIVTPEYNYSVPGGLKNAIDWLSRLPDQPLAGKPVLIQTSSMGVIGGARCQYHLRQILVFLDAMVMNKPEFMGGVIQNKVDPQTGEVIDQGTLDHLTGQLTAFGEFIQRVKI | not soluble
17 | MSLKSAKELLFLALGGSGEIGMNVNLYCCDGKWLMVDLGMTFADPYYPGIDLVFADLEFIEERLDDLVGIVLTHAHEDHIGAVPYFAQDLGVPLYATPFTAKLVHEKLLEAGIEKEVELNVIDHLDPFQLGPFGLRYIPLAHSIAEGNALLIDTPHGRIFHTGDWKLDDEPRIGTPATEEELTAIGDEGVLALVCDSTNVFNPNPSGSEGAVRAGLLEAVAAQKGRRVVVTTFASNVARLQTLGEVAEATGRRVCVAGRSLDRIIRVAQSCGYLKNFPETVHMDDAMDLPRGELLVLATGGQGEPRAALARIAADQHPVKLEKGDAVLFSTRQIPGNELAIGRVQNALVEKGVRIVTDRQSMIHVSGHPGRPELMALYEWLRPEILVPVHGEIRHMAEQAQLGLDEGIPKAIVQKNGDLIRLAPNGPKKLSEEGHHHHHH | soluble
18 | MEVSTVNDVKIYNLSAGKSLPEWMSSRTRRKLEQRNTDVRQRIQLIQDFEMPDVSNTVNITPDGKYVWASGNYKPWLRCYDLNNLSLKFERGLDADVIKLIPLSDDYSKVVILEEERWIEMHAMLGRYFRMRMPCQGRDMALSEESSDLYLVGSKSEVYRFNLEQGCWLTPFESTAPLNCVQVCTEHQLICCGTTNGVVEAWDHRDKSLCGTLDAGSSVNSHIGENQKVAVTSVAFSDPLHIGVGTSTGQILIYDLRARRPLLIKDHNNELPINKLDFIKRDDGDVVASMDSRMMKLWHEEDGSPMAAIENTCPLNDFCRFPNSGMFFFANEAPKMLQYFIPQLGPAPKWCSYLENLTEEMEETETTVYDNYRFVTKKQLDDLGLSGLIGTNVLRAYMHGYFIDARLYNKAQTQMQPFAYEKYKDEKIKSMIADEREESAVKKKVEKLPAVNKALAARLRDEASAANQKAETKKEKKKSKKSDAATSLLADDRFKKLFESEDFEVDETSEQFLKNASIAQKMKAKGPVEVESEGEESEDNDASDSENEASGSDSEPKGSASWMVEENREVDMASDLESASSDEDIDQSLKAKRAKVRAAKKSERNIQKSQKYDERKEAKKIRKEQRQLSKPSKFVLHSIGTGETTRKFVDETVAVRDDADNKDSMALGARKRATARSDRKTKKVNDDDVPFGGREMTFTISKRDKDLRAEAAKTKQAAHAAERKEVSRRPNALVTKGLKKLPGNVNVGKRQNTF | soluble
19 | MKEIWLLAESESWDEAKEMLKDAIEIGFDGALVRRDFLERAEKLGRMKIVPIEDAVVKISSAEDQERALQREVVVLKFEDWKVIPLENIVAMKKSGKVIAAVDTIEDAKLALTTLERGADGIAVSGDRETLRKFYEVVKEEGERVELVRARVKEIRPLGVGERVCIDTVTLMTPGEGMLVGNQASFMFLVASESEESEYVASRPFRVNAGSVNAYLKVGDKTRYLAELKAGDEVEVVKFDGAVRKSYVGRVKIERRPLILIRAEVDGVEGSVILQNAETIKLVAPDGKHVSVAELKPGDEILVWLGKKARHFGVEVDEFIVER | not soluble
